Measurements published in paper doi:10.1101/2021.08.23.457303 (bioRxiv, 2021).

How the values were obtained:
[1] = molecular target: T1, His-tagged human Bin1 isoform 8 K436X (CNM-associated, truncated SH3 domain) (human, UniProt O00499-8 1-435); experiment: pull-down
T1 sequence: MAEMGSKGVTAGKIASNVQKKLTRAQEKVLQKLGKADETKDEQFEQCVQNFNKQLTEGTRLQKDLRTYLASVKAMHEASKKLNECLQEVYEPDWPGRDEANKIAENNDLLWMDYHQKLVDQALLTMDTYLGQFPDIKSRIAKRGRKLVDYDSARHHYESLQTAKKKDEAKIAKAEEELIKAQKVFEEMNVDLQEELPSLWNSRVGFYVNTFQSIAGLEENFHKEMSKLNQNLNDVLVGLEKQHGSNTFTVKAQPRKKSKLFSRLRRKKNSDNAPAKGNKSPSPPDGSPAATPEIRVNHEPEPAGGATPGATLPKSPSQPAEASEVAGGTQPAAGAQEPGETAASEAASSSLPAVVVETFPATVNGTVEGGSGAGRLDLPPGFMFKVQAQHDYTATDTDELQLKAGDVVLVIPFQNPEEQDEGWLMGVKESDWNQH

[2] = molecular target: T2, His-tagged human Bin1 isoform 8, wild type, full length (human, UniProt O00499-8 1-454); experiment: pull-down
T2 sequence: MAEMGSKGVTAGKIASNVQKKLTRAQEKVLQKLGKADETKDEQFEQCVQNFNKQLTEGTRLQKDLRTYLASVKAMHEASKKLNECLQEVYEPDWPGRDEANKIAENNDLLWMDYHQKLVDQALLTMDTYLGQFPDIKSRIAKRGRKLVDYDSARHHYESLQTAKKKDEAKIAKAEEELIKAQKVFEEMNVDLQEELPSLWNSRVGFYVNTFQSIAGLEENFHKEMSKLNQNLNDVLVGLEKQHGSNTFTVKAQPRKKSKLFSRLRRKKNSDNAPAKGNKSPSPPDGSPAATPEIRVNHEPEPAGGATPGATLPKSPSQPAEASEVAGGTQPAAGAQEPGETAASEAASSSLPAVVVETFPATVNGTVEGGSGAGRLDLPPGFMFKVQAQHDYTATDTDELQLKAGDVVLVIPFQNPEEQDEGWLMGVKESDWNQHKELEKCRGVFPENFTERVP

B1: GST-tagged PRD domain of Dyn2 (domain or fragment)
chain: PVPPPVDDTWLQSASSHSPTPQRRPVSSIHPPGRPPAVRGPTPGPPLIPVPVGAAASFSAPPIPSRPGPQSVFANSDLFPAPPQIPSRPVRIPPGIPPGVPSRRPPAAPSRPTIIRPAEPSLLD
- Kd [1]: 267 nM
- Kd [2]: 180 nM
